Blank lines part the entries; values can stand above or below the binder they belong to. Bridge positions count the residues as written; N and C are the ends. Square brackets hold non-standard residues; d marks the D form. Ends that are not written are not given here. βAla = NCCC(=O)O
Columns and labels:
[1] = molecular target: T1, EphA4 Fc (human EphA4 Fc, #CJ75, Novoprotein, or mouse EphA4 Fc, #641-A4, R&D Systems/BioTechne) (human or mouse, UniProt P54764 20-547); assay: competition ELISA, ephrin-A5 AP on immobilized EphA4 Fc, with and without 20 mg/mL BSA
T1 construct: extracellular domain; bought reagents; also called EphA4 extracellular domain fused to the Fc portion of an antibody; not shown: Fc portion of an antibody

[2] = molecular target: T1, EphA4 Fc (human EphA4 Fc, #CJ75, …); assay: competition ELISA, inhibition of ephrin-A5 AP binding to immobilized EphA4 Fc, with 20 mg/ml BSA
[3] = molecular target: T1, EphA4 Fc (human EphA4 Fc, #CJ75, …); assay: competition ELISA, inhibition of ephrin-A5 AP binding to immobilized EphA4 Fc
[4] = molecular target: T1, EphA4 Fc (human EphA4 Fc, #CJ75, …); assay: competition ELISA, inhibition of ephrin-A5 AP binding to immobilized EphA4 Fc; 0 time point, compound diluted in mouse plasma in vitro (apparent IC50)
[5] = molecular target: T1, EphA4 Fc (human EphA4 Fc, #CJ75, …); assay: competition ELISA, inhibition of ephrin-A5 AP binding to immobilized EphA4 Fc, with serum albumin (40 mg/mL HSA by the text; the cell has no footnote)
[6] = molecular target: T1, EphA4 Fc (human EphA4 Fc, #CJ75, …); assay: competition ELISA, ephrin-A5 AP on immobilized EphA4 Fc, same experiments

T1 sequence (P54764 20-547): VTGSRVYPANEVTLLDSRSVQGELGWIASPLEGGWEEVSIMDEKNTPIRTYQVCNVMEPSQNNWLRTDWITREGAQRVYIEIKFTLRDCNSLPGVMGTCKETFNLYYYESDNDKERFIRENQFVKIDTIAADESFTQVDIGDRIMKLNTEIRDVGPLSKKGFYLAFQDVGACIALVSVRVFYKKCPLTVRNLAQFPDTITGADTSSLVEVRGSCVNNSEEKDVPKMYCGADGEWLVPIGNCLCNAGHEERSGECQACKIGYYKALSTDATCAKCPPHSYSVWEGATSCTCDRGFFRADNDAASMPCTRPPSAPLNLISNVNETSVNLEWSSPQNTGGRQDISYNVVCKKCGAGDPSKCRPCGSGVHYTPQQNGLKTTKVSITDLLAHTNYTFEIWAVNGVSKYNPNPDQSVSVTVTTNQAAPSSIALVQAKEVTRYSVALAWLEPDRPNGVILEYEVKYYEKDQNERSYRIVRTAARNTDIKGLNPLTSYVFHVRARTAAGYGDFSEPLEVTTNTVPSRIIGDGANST

fold decrease in potency with BSA against buffer [1]: ~8 fold
IC50 [2]: 130 nM
IC50 [3]: 18 nM
B1: compound 21 (peptide)
peptide: [βAla]PYCVYR[βAla]SWSCRLIEDICLPRWGCLWEDD-NH2
modifications: disulfide 4-12, 19-25; N-terminus assumed
SMILES: CC[C@H](C)[C@H](NC(=O)[C@H](CC(C)C)NC(=O)[C@H](CCCNC(=N)N)NC(=O)[C@@H]1CSSC[C@H](NC(=O)[C@H](Cc2ccc(O)cc2)NC(=O)[C@@H]2CCCN2C(=O)CCN)C(=O)N[C@@H](C(C)C)C(=O)N[C@@H](Cc2ccc(O)cc2)C(=O)N[C@@H](CCCNC(=N)N)C(=O)NCCC(=O)N[C@@H](CO)C(=O)N[C@@H](Cc2c[nH]c3ccccc23)C(=O)N[C@@H](CO)C(=O)N1)C(=O)N[C@@H](CCC(=O)O)C(=O)N[C@@H](CC(=O)O)C(=O)N[C@H](C(=O)N[C@H]1CSSC[C@@H](C(=O)N[C@@H](CC(C)C)C(=O)N[C@@H](Cc2c[nH]c3ccccc23)C(=O)N[C@@H](CCC(=O)O)C(=O)N[C@@H](CC(=O)O)C(=O)N[C@@H](CC(=O)O)C(N)=O)NC(=O)CNC(=O)[C@H](Cc2c[nH]c3ccccc23)NC(=O)[C@H](CCCNC(=N)N)NC(=O)[C@@H]2CCCN2C(=O)[C@H](CC(C)C)NC1=O)[C@@H](C)CC
notes: also called peptide 21

IC50 [4]: 81 nM
B2: compound 14 (peptide)
peptide: XPYCVYRXSWSCGGKG
modifications: β-alanine at 1 and 8; lauroyl-γ-glutamic acid on the side chain of the Lys of the C-terminal GGKG; C-terminal amide; disulfide bond Cys4-Cys12 (cyclic)
notes: also called peptide 14

IC50 [3]: 67 nM
IC50 [5]: 55 nM
fold decrease in potency (IC50) against APY-d2 [6]: ~2 fold
B3: compound 1 (peptide)
peptide: APYCVYK[βAla]SWSC-NH2
modifications: disulfide 4-12; N-terminus assumed
SMILES: CC(C)[C@@H]1NC(=O)[C@@H](NC(=O)[C@H](Cc2ccc(O)cc2)NC(=O)[C@@H]2CCCN2C(=O)[C@H](C)N)CSSC[C@@H](C(N)=O)NC(=O)[C@H](CO)NC(=O)[C@H](Cc2c[nH]c3ccccc23)NC(=O)[C@H](CO)NC(=O)CCNC(=O)[C@H](CCCCN)NC(=O)[C@H](Cc2ccc(O)cc2)NC1=O
notes: also called peptide 1; APYCVYKβASWSC-NH2
